Measurements as given in PMC5268738, “A sequential multi-target Mps1 phosphorylation cascade promotes spindle checkpoint signaling” (eLife, 2017).

Molecular target: scMad1^E–scMad2 complex (S. cerevisiae) (UniProt P40957)
Assay: ITC; 20°C; 25 mM HEPES pH 7.5, 150 mM NaCl; scMad1 proteins (20 µM) in the cell; scBub1 phospho-peptides or phosphorylated scBub1_(449–530) (300 µM) injected

scMad1^E–scMad2 complex (S. cerevisiae), sequence (P40957 whole entry, chain 1 of 2): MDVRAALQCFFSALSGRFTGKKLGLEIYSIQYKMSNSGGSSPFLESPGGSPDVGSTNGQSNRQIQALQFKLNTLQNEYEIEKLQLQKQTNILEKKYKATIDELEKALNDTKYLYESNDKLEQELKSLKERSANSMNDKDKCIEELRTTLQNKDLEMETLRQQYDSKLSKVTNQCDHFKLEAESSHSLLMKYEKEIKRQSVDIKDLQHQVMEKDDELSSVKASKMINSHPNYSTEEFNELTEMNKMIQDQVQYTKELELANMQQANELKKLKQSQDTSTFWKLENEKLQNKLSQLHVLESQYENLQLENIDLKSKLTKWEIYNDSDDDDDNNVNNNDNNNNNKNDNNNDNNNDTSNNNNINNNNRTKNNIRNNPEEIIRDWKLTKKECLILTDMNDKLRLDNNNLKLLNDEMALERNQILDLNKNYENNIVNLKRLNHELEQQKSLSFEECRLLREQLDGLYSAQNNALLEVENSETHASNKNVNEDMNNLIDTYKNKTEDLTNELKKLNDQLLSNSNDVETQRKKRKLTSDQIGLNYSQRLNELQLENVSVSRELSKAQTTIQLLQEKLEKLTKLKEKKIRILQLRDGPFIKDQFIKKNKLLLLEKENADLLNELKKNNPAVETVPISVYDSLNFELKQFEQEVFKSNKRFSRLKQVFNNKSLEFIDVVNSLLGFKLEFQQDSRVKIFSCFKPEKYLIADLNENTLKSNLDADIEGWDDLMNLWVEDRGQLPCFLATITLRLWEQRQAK
scMad1^E–scMad2 complex (S. cerevisiae), sequence (P40958 whole entry, chain 2 of 2, further chain): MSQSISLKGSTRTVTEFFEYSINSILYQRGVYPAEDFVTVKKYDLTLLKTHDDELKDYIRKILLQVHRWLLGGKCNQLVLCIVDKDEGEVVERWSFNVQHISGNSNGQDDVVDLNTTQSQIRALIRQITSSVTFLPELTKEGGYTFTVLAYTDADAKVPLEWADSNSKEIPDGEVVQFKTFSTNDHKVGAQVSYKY

B1: Mps1-phosphorylated scBub1_(449–530) fragment (domain or fragment)
chain: SRSPTVTAFSKDAINEVFSMFNQHYSTPGALLDGDDTTTSKFNVFENFTQEFTAKNIEDLTEVKDPKQETVSQQTTSTNETN
modifications: phosphothreonine at 453, phosphothreonine at 455, phosphoserine at 458 (mass spectrometry; co-expressed with scMps1)
  Kd: 2.2 µM
